Target: Mlph-ABD labelled with ATTO 488 NHS Ester dye (mouse) (UniProt Q91V27)
Assay: MST

UniProt Q91V27, sequence (Q91V27 401-590): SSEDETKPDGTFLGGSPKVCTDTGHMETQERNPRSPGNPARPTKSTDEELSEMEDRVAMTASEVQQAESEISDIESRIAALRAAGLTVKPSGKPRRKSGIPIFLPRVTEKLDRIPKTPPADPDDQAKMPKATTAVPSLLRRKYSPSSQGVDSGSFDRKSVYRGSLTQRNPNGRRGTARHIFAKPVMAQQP

Question: With “Flag-Myo5a-MTD (residues 1106-1467), bacterial-expressed (domain or fragment)” as the substance, how does the Kd read?
Answer: Its Kd is 562 nM.

Reference: publication doi:10.1101/2023.11.01.565146
